From publication PMC6389178, “Nanoscale click-reactive scaffolds from peptide self-assembly” (Journal of Nanobiotechnology, 2017)
Where no end group is shown, it is not given here.

Molecular target: the molecule itself
Test: atomic force microscopy + co-sedimentation; peptide 10 mg/mL in 10% acetonitrile in water, shaken at 600 rpm at 37 °C for 24 h; fibrils imaged by AFM on mica; fibrils pelleted at 313,000 x g for 30 min, supernatant with unaggregated monomer removed, and the pellet's peptide analysed by LC-MS

Does YTIAALLSPYS-NH2 [TTR105-115 peptide, unfunctionalised 'wild-type', amide-terminated] bind?
Result: binds
